Data from article PMC7492729, “CsrA-Mediated Translational Activation of ymdA Expression in Escherichia coli”.

How the values were obtained:
Details in all cases: protein: recombinant; tags: His6 (C-terminal, as named CsrA-H6); chain copies: 2; label: 5'-32P
[1] = molecular target: T1, CsrA-H6 (Escherichia coli, UniProt P69913 1-61); test: RNase T1 footprinting; 10 mM MgCl2; BS1 and BS2 protected, BS* and SD GGA not; 10 mM Tris-HCl pH 7.5, 10 mM MgCl2, 100 mM KCl, 40 ng yeast tRNA per 10 ul, 7.5% glycerol, 0.1 mg/ml xylene cyanol, 0.1 nM RNA (2 nM RNA plus 1 ug acetylated BSA for footprint), 37 C 30 min
[2] = molecular target: T1, CsrA-H6; test: RNase T1 footprinting; 10 mM MgCl2; binds BS1 in absence of BS2; 10 mM Tris-HCl pH 7.5, 10 mM MgCl2, 100 mM KCl, 40 ng yeast tRNA per 10 ul, 7.5% glycerol, 0.1 mg/ml xylene cyanol, 0.1 nM RNA (2 nM RNA plus 1 ug acetylated BSA for footprint), 37 C 30 min
[3] = molecular target: T1, CsrA-H6; test: EMSA; 10 mM MgCl2, 40 ng yeast tRNA; 10 mM Tris-HCl pH 7.5, 10 mM MgCl2, 100 mM KCl, 40 ng yeast tRNA per 10 ul, 7.5% glycerol, 0.1 mg/ml xylene cyanol, 0.1 nM RNA (2 nM RNA plus 1 ug acetylated BSA for footprint), 37 C 30 min

T1 sequence (P69913 whole entry): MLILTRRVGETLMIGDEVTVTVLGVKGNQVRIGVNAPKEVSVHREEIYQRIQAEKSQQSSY

B1: ymdA leader RNA (footprint) (structured_RNA)
RNA: GUCUUAAUUUGUUGAAAUAUCGAGCAUAAGAUGAAUCUGGAGAGAAUGGUCUGCUGCGAAUCAGCCAACCUGAAAGUAUGGAUAACACAACCCUCAAGGAUGACUAAUCAUUGAGGAAAUAGAAUAAA
B1: binds [1].

B2: ymdA leader RNA BS2 mutant (footprint) (structured_RNA)
RNA: GUCUUAAUUUGUUGAAAUAUCGAGCAUAAGAUGAAUCUGGAGAGAAUGGUCUGCUGCGAAUCAGCCAACCUGAAAGUAUGGAUAACACAACCCUCAAAGAUGACUAAUCAUUGAGGAAAUAGAAUAAA
B2: binds [2].

B3: ymdA leader RNA (EMSA) (structured_RNA)
RNA: AAGAUGAAUCUGGAGAGAAUGGUCUGCUGCGAAUCAGCCAACCUGAAAGUAUGGAUAACACAACCCUCAAGGAUGACUAAUCAUUGAGGAAAUAGAAUAAA
In the case of B3, the Kd [3] is reported as 48 ± 3 nM.
